Reference: US20200024330A1

Tests used:
Experiment in all cases: cell-based or functional assay
[1] = molecular target: HIV-1 Env of isolate MGRM-D-016 (HIV-1)
[2] = molecular target: HIV-1 LAVIC_18 Env (HIV-1)
[3] = molecular target: HIV-1 Env of isolate MGRM-AE-002 (HIV-1)
[4] = molecular target: HIV-1 JRCSF envelope glycoprotein (Env) on pseudovirus (HIV-1)
[5] = molecular target: HIV-1 Env of isolate MGRM-D-013 (clade D) (HIV-1)
[6] = molecular target: HIV-1 Env of isolate MGRM-D-005 (HIV-1)
[7] = molecular target: HIV-1 LAVI_C3 Env (HIV-1)
[8] = molecular target: HIV-1 Env of pseudovirus APV_17, clade B (HIV-1)
[9] = molecular target: HIV-1 Env of isolate MGRM-G-024 (clade G pseudovirus) (HIV-1)
[10] = molecular target: HIV-1 92UG031 envelope glycoprotein (Env) (HIV-1)
[11] = molecular target: HIV-1 MGRM-C-028 envelope glycoprotein (Env) on pseudovirus (HIV-1)
[12] = molecular target: HIV-1 Env of pseudovirus 6535.3 (Acute), clade B (HIV-1)
[13] = molecular target: HIV-1 98CN009 envelope glycoprotein (Env) on pseudovirus (HIV-1)
[14] = molecular target: HIV-1 Env of isolate MG RM-D-011 (subtype D) (HIV-1)
[15] = molecular target: HIV-1 MGRM-Chronic-B-017 Env (pseudovirus) (HIV-1)
[16] = molecular target: HIV-1 Env of isolate MG RM-D-029 (subtype D) (HIV-1)
[17] = molecular target: HIV-1 Env of isolate MGRM-C-002 (pseudovirus) (HIV-1 isolate MGRM-C-002, subtype C)
[18] = molecular target: HIV-1 MGRM-Chronic-B-012 Env (pseudovirus) (HIV-1)
[19] = molecular target: HIV-1 92UG005 envelope glycoprotein (Env) on pseudovirus (HIV-1)
[20] = molecular target: HIV-1 Env of isolate MGRM-C-014 (pseudovirus) (HIV-1 isolate MGRM-C-014, subtype C)
[21] = molecular target: HIV-1 Env of isolate MG RM-D-026 (subtype D) (HIV-1)
[22] = molecular target: HIV-1 Env of isolate MGRM-C-010 (pseudovirus) (HIV-1 isolate MGRM-C-010, subtype C)
[23] = molecular target: HIV-1 JR-CSF Env D185A (HIV-1 (isolate JR-CSF)) (UniProt P20871)
[24] = molecular target: HIV-1 JR-CSF Env T162A (HIV-1 (isolate JR-CSF)) (UniProt P20871)
[25] = molecular target: HIV-1 JR-CSF Env F468A (HIV-1 (isolate JR-CSF)) (UniProt P20871)
[26] = molecular target: HIV-1 Env of isolate MGRM-C-015 (HIV-1)
[27] = molecular target: HIV-1 Env of isolate APV-13 (pseudovirus) (HIV-1 isolate APV-13, subtype B)
[28] = molecular target: HIV-1 Env of isolate MGRM-Chronic-B-004 (HIV-1)
[29] = molecular target: HIV-1 Env of isolate MGRM-D-026 (subtype D), on pseudovirus (HIV-1)
[30] = molecular target: HIV-1 Env of isolate MGRM-C-019 (HIV-1)
[31] = molecular target: HIV-1 Env of isolate MGRM-AG-012 (CRF_AG), on pseudovirus (HIV-1)
[32] = molecular target: HIV-1 Env of isolate MGRM-F1-010 (subtype F), on pseudovirus (HIV-1)
[33] = molecular target: HIV-1 Env of isolate 92UG001 (HIV-1)
[34] = molecular target: HIV-1 Env of isolate THR0.18 (HIV-1)
[35] = molecular target: HIV-1 Env of isolate MGRM-AE-005 (CRF01_AE), on pseudovirus (HIV-1)
[36] = molecular target: HIV-1 Env of isolate VLGCB3 (HIV-1)
[37] = molecular target: HIV-1 Env of isolate MGRM-A-007 (clade A), on pseudovirus (HIV-1)
[38] = molecular target: HIV-1 Env of isolate MGRM-AG-011 (CRF_AG), on pseudovirus (HIV-1)
[39] = molecular target: HIV-1 Env of isolate MGRM-AE-007 (CRF01_AE), on pseudovirus (HIV-1)
[40] = molecular target: HIV-1 Env of isolate MGRM-F1-006 (subtype F), on pseudovirus (HIV-1)

1496_C09 (PG9) (TCN-109) (antibody)
IC50 (µg/mL), pseudovirus neutralization [1]: 0.098 µg/mL | IC50 [2]: 0.1 µg/mL | IC50 (µg/mL), pseudovirus neutralization [3]: 0.04 µg/mL | IC50 (µg/ml), pseudovirus neutralization [3]: 0.04 µg/mL | IC90 (pseudovirus neutralization) [4]: < 0.0025 µg/mL | IC50 (µg/ml), pseudovirus neutralization [5]: 0.06 µg/mL | IC50 (µg/mL), pseudovirus neutralization [6]: 1.8 µg/mL | IC50 [7]: 1.45 µg/mL | IC50 (µg/ml), pseudovirus neutralization [8]: 14.6 µg/mL | IC50 (µg/ml), pseudovirus neutralization [9]: 0.07 µg/mL | IC50 (µg/ml), pseudovirus neutralization [10]: 3.08 µg/mL | IC50 (ug/ml), neutralizing activity [11]: 0.121 µg/mL | IC50 neutralization [11]: 0.121 µg/mL | IC80, neutralization [11]: 0.645 µg/mL | IC90, neutralization [11]: 1.65 µg/mL | IC95, neutralization [11]: 3.71 µg/mL | IC50 (µg/ml), pseudovirus neutralization [12]: 0.22 µg/mL | IC50 (µg/ml), pseudovirus neutralization [13]: 1.07 µg/mL

4838_L06 (PGT-121) (antibody)
IC50 (µg/mL), pseudovirus neutralization [14]: 0.018 µg/mL | IC50, pseudovirus neutralization [15]: > 50 µg/mL | IC50 (µg/mL), pseudovirus neutralization [16]: > 50 µg/mL | IC50 (µg/mL) neutralization [17]: 0.019 µg/mL | IC50, pseudovirus neutralization [18]: 0.036 µg/mL | IC50 (ug/ml), neutralizing activity [19]: > 10 µg/mL | IC50 (µg/mL) neutralization [20]: 26.9 µg/mL | IC50 (µg/mL), pseudovirus neutralization [21]: > 50 µg/mL | IC50 (µg/mL) neutralization [22]: > 50 µg/mL

4858_P08 (PGT-123) (antibody)
IC50 (µg/mL), pseudovirus neutralization [14]: 0.012 µg/mL | IC50, pseudovirus neutralization [15]: > 50 µg/mL | IC50 (µg/mL), pseudovirus neutralization [16]: > 50 µg/mL | IC50 (µg/mL) neutralization [17]: 0.01 µg/mL | IC50, pseudovirus neutralization [18]: 0.227 µg/mL | Fold IC50 increase relative to wild-type [23]: 1.9 fold | IC50 (ug/ml), neutralizing activity [19]: 2.49 µg/mL | IC50, pseudovirus neutralization [19]: 2.49 µg/mL | IC80, pseudovirus neutralization [19]: > 10 µg/mL | IC90 (pseudovirus neutralization) [19]: > 10 µg/mL | IC95, pseudovirus neutralization [19]: > 10 µg/mL | Fold IC50 increase relative to wild-type [24]: 0.7 fold | IC50 (µg/mL) neutralization [20]: 1 µg/mL | IC50 (ug/ml), neutralizing activity [11]: 0.443 µg/mL | IC50, pseudovirus neutralization [11]: 0.443 µg/mL | IC80, pseudovirus neutralization [11]: 2.8 µg/mL | IC90 (pseudovirus neutralization) [11]: 7.11 µg/mL | IC95, pseudovirus neutralization [11]: > 10 µg/mL | IC50 (µg/mL), pseudovirus neutralization [21]: > 50 µg/mL | Fold IC50 increase relative to wild-type [25]: 0.5 fold | IC50 (µg/mL) neutralization [22]: > 50 µg/mL

4877_D15 (PGT-122) (antibody)
IC50 (µg/mL), pseudovirus neutralization [14]: 0.019 µg/mL | IC50, pseudovirus neutralization [15]: 5.66 µg/mL | IC50 (µg/mL), pseudovirus neutralization [16]: > 50 µg/mL | IC50 (µg/mL) neutralization [17]: 0.022 µg/mL | IC50, pseudovirus neutralization [18]: 0.066 µg/mL | IC50 (ug/ml), neutralizing activity [19]: > 10 µg/mL | IC50 (µg/mL) neutralization [20]: > 50 µg/mL | IC50 (ug/ml), neutralizing activity [11]: 2.06 µg/mL | IC50 (µg/mL), pseudovirus neutralization [21]: > 50 µg/mL | IC50 (µg/mL) neutralization [22]: > 50 µg/mL

5114_A19 (PGT-128) (antibody)
IC50 [26]: 0.196 µg/mL | IC50 [1]: > 50 µg/mL | IC50 (µg/mL) neutralization [27]: 0.008 µg/mL | IC50 [28]: 0.009 µg/mL | IC50, pseudovirus neutralization [29]: > 50 µg/mL | IC50 [30]: 0.01 µg/mL | IC50, single-round pseudovirus neutralization [31]: > 50 µg/mL | IC50, pseudovirus neutralization [32]: 16.7 µg/mL | IC50 [33]: > 50 µg/mL | IC50 [6]: 0.051 µg/mL | Fold IC50 increase relative to wild-type [23]: 1.5 fold | IC50 [34]: > 50 µg/mL | IC50, single-round pseudovirus neutralization [35]: 0.032 µg/mL | Fold IC50 increase relative to wild-type [24]: 1.1 fold | IC50 [36]: 0.012 µg/mL | IC50, single-round pseudovirus neutralization [37]: > 50 µg/mL | IC50, single-round pseudovirus neutralization [38]: 3.93 µg/mL | IC50, single-round pseudovirus neutralization [39]: > 50 µg/mL | Fold IC50 increase relative to wild-type [25]: 0.5 fold | IC50, pseudovirus neutralization [40]: 0.763 µg/mL

5123_A06 (PGT-125) (antibody)
IC50 (µg/mL), pseudovirus neutralization [14]: 0.008 µg/mL | IC50, pseudovirus neutralization [15]: > 50 µg/mL | IC50 (µg/mL), pseudovirus neutralization [16]: > 50 µg/mL | IC50 (µg/mL) neutralization [17]: 0.008 µg/mL | IC50, pseudovirus neutralization [18]: 0.036 µg/mL | Fold IC50 increase relative to wild-type [23]: 0.6 fold | IC50 (ug/ml), neutralizing activity [19]: > 10 µg/mL | neutralization IC50 [19]: > 10 µg/mL | neutralization IC80 [19]: > 10 µg/mL | neutralization IC90 [19]: > 10 µg/mL | neutralization IC95 [19]: > 10 µg/mL | Fold IC50 increase relative to wild-type [24]: 0.5 fold | IC50 (µg/mL) neutralization [20]: > 50 µg/mL | IC50 (ug/ml), neutralizing activity [11]: 5.78 µg/mL | neutralization IC50 [11]: 5.78 µg/mL | neutralization IC80 [11]: > 10 µg/mL | neutralization IC90 [11]: > 10 µg/mL | neutralization IC95 [11]: > 10 µg/mL | IC50 (µg/mL), pseudovirus neutralization [21]: > 50 µg/mL | Fold IC50 increase relative to wild-type [25]: 1 fold | IC50 (µg/mL) neutralization [22]: > 50 µg/mL

5141_B17 (PGT-126) (antibody)
IC50 (µg/mL), pseudovirus neutralization [14]: 0.009 µg/mL | IC50, pseudovirus neutralization [15]: > 50 µg/mL | IC50 (µg/mL), pseudovirus neutralization [16]: > 50 µg/mL | IC50 (µg/mL) neutralization [17]: 0.011 µg/mL | IC50, pseudovirus neutralization [18]: 0.027 µg/mL | Fold IC50 increase relative to wild-type [23]: 1 fold | IC50 (ug/ml), neutralizing activity [19]: 0.0181 µg/mL | Fold IC50 increase relative to wild-type [24]: 0.6 fold | IC50 (µg/mL) neutralization [20]: > 50 µg/mL | IC50 (ug/ml), neutralizing activity [11]: 0.283 µg/mL | IC50 (µg/mL), pseudovirus neutralization [21]: > 50 µg/mL | Fold IC50 increase relative to wild-type [25]: 0.7 fold | IC50 (µg/mL) neutralization [22]: > 50 µg/mL
